The source of these data is patent publication US8697386B2, “Methods and compositions for modulating hepsin activation of macrophage-stimulating protein” (Genentech, Inc., priority 2009, dated 2014).

* marks the point of attachment. CH2Cl = ClC*

The target of assay [1] is T1, cell surface expressed hepsin in LnCap-34 cells (Homo sapiens, UniProt P05981).
T1 construct: expressed in transfected cells; host or cells: LnCaP-34 cells
In words: Pro-MSP activation by cell surface expressed hepsin in LnCap-34 cells. It is filed as cell-based. Particulars: 1 μM inhibitor, 15 minutes preincubation, 125I-pro-MSP 25 μg/ml, 3 hours, 37° C. On the procedure:
Confluent LnCap-34 cells cultured in 24-well plates were washed with serum-free RPMI-1640 medium and were incubated either alone or with different anti-hepsin inhibitors (1 μM of anti-hepsin antibody Fab25/1 μM of KD1/1 μM of Ac-KQLR-cmk (‘KLQR” disclosed as SEQ ID NO:10)) in serum-free RPMI-1640 medium for 15 minutes at 37° C. prior to addition of 125I-labeled pro-MSP (25 μg/ml). After incubation for 3 hours at 37° C., aliquots were removed and analyzed by SDS-PAGE (4-20% gradient gel) (Invitrogen, Carlsbad, Calif.) followed by exposure to X-ray films.

Assay [2] deals with Ron signaling pathway. The assay can be described thus: Immunoblot for phosphorylated downstream kinases in A2780 cells overexpressing human Ron. It is filed as cell-based. The conditions noted are these: pro-MSP 10 and 50 ng/ml, 10 nM hepsin, 1 hour. How it is done: Immunoblot for the detection of phosphorylated kinases: A human ovarian carcinoma cell line (A2780) overexpressing human Ron was used to study the phosphorylation of Ron and other downstream kinase. Cells at a density of 2×10^5 cells/well were cultured in 12-well plate and serum-starved for 24 hours. The cells were then stimulated with either pro-MSP (10 and 50 ng/ml) alone or in presence of 10 nM Hepsin for 1 hour. Mature MSP from a commercial source and hepsin were used as controls. Samples were prepared by washing cells twice with cold PBS followed by addition of 200 ul lysis buffer. Samples were then analyzed by SDS/PAGE on 4-12% Tris-glycine gels (Invitrogen, Carlsbad, Calif.). Proteins were transferred onto nitrocellulose membranes and subsequently treated with anti-Ron antibody or anti-phospho-AKT antibody or anti-phospho-MAPK antibody or anti-phospho-S6 antibody, overnight at 4° C. After washing, membranes were incubated with IRDye800-conjugated goat anti-mouse IgG (Rockland, Gilbertsville, Pa.) and AlexaFluor 680 goat anti-rabbit IgG (Invitrogen) for 1 h. Proteins were detected with the Odyssey Infrared Imaging System (LI-COR Biosciences, Lincoln, Nebr.).

T1 sequence (P05981 whole entry): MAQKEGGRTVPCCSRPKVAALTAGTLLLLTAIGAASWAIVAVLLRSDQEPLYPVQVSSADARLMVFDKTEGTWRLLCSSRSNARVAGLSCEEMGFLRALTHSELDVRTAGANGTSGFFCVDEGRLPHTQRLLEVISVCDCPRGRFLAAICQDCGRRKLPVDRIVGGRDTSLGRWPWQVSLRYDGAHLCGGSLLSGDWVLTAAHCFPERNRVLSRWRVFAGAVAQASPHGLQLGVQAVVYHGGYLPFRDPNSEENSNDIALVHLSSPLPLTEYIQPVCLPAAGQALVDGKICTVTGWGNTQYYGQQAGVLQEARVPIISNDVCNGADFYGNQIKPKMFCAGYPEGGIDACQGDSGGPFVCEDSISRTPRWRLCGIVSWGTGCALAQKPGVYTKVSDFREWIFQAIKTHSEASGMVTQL

Regarding “Ac-KQLR-chloromethylketone (Ac-KQLR-CH2Cl; SMILES CC(=O)N[C@@H](CCCCN)C(=O)N[C@@H](CCC(N)=O)C(=O)N[C@@H](CC(C)C)C(=O)N[C@@H](CCCNC(=N)N)C(=O)CCl) [reference compound]”, the “blocking of pro-MSP proteolytic cleavage by cell surface hepsin” value in assay [1] was “effectively blocked”.
On the same count and under the same terms, under “KD1: Kunitz domain 1 (KD1) of HAI-1 or HAI-1B, hepsin inhibitor (TEDYCLASNKVGRCRGSFPRWYYDPTEQICKSFVYGGCLGNKNNYLREEECILACRGV)” stands “effectively blocked”.
With “hepsin: extracellular domain of the human recombinant hepsin, type II transmembrane serine protease”, the “phosphorylation of MAP kinase and S6 kinase (activation of Ron signaling pathway)” value in assay [2] is “Neither hepsin nor pro-MSP alone was effective”.
